Laboratory results reported in patent US20250243292A1 (published 2025).

T1: fully glycosylated CD24 (recombinant, from CHO cells) (N-glycans, sialic acid and O-glycans kept (untreated))
T1 construct: Recombinant CD24 made in CHO cells, untreated; also called fully modified (N-glycan+sialic acid+O-glycan modifications) CD24; CD24 without deglycosylation
T1 chain: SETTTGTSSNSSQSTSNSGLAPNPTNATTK

B1: PP6373 (antibody, human IgG1, kappa, V domains shown)
VH: EVKFEESGGGLVQPGGSIKLSCAASGVTFSEAWMDWVRQSPEKGLEWVAEIRDKPNSYVTYYAESVKGRFTISRDDSKSRVYLQMNNLRTEDTGIYYCTGAMDYWGQGTSVTVSS
VL: DIVMTQTPLSLSVTIGQPASISCKSSQSLLYSNGKTYLNWLQQRPGQSPKRLIYQVSKLDPGIPDRFSGSGSETDFTLKISRVEAEDLGIYYCMQGSSLPWTFGGGTKLEIKR
notes: Biotinylated in tissue and cell staining; also called H4069 + L4071; P3050.ComF1.2H1

Experiments:
[1] = target: T1, fully glycosylated CD24 (recombinant, …); assay: ELISA titration on coated Fc removed CD24, untreated
Method: FIG. 8. Quantitative comparison of binding between different CD24 glycoforms and anti-CD24 antibodies: parental PP6229 vs affinity matured PP6373. Fc removed CD24 were coated onto ELISA plate, and were then treated with either buffer (CD24), NanA (SA-) or NanA+N-glycanse (SA-N-) prior adding given doses of […] (left panel) or PP6373 (right panel). The maximum concentration tested was 7812.50 ng/ml with titration factor of 5× to a minimum concentration of 0.02 ng/ml.
Therefore, this clone is chosen for further study. The heavy chain sequence for PP6373 is listed in SEQ ID NO: 6 and the light chain sequence is listed on SEQ ID No.16. Compared with the parental sequence, the heavy chain has three mutations in CDR2, while the light chain has one mutation in CDR3 of the light chain. […] It is also of note that PP6373 gained the ability to bind to CD24 even without deglycosylation at 1/1000 level of that to SA-N-CD24. However, since CHO cells is known to have incomplete glycosylation, it is likely that the binding reflect the higher sensitivity of the antibody to detect minor glycoform in the recombinant CD24 prepared from CHO cells.

PP6373 [2] = target: B1; assay: peptide inhibition ELISA, peptides titrated over a large dose range
Method: (§1) To determine the antigenic epitope recognized by 3B6 and affinity matured clone PP6373, we synthesized overlapping peptides covering the mature CD24 amino acid sequence (Seq ID No 42), and pre-incubated them with 3B6 antibody prior to adding 3B6 to plates pre-coated with NO-CD24 protein (CD24Fc pretreated sequentially with N-glycosidase, NanA and O-glycosidase).

PP6373 [3] = target: B1; assay: inhibition assay with truncated peptides
3B6 = target: T2, 3B6; assay: peptide inhibition ELISA, 3B6 on NO-CD24
T2 construct: Monoclonal antibody; also called anti-CD24 monoclonal antibody 3B6
Method: as §1

PP6373 [4] = target: B1; assay: peptide inhibition ELISA, PP6373 on SA-N-CD24, peptides titrated

Row | Binder | binding result (3B6) | binding result (PP6373 [4]) | also measured
1 | B1 |  |  | binding relative to that to SA-N-CD24 [1]: 0.001 ratio
2 | SNSGLAPNPT (Synthetic overlapping peptide of mature CD24) [peptide 4] |  |  | binding result (PP6373 [2]): binds
3 | SNSGLAPN (C-terminally truncated form of peptide 4; also called truncated peptide 4) [SNSGLAPN (SEQ ID NO: 48)] |  |  | binding result (PP6373 [3]): binds
4 | SETTTGTSSN (Synthetic overlapping peptide of mature CD24; by order probably peptide 1; also called one of the five overlapping CD24 peptides) [SEQ ID NO 43] | no binding | no binding | 
5 | GTSSNSSQST (Synthetic overlapping peptide of mature CD24; by order probably peptide 2; also called one of the five overlapping CD24 peptides) [SEQ ID NO 44] | no binding | no binding | 
6 | SSQSTSNSGL (Synthetic overlapping peptide of mature CD24; by order probably peptide 3; also called one of the five overlapping CD24 peptides) [SEQ ID NO 45] | no binding | no binding | 
7 | APNPTNATTK (Synthetic overlapping peptide of mature CD24; by order probably peptide 5; also called one of the five overlapping CD24 peptides) [SEQ ID NO 47] | no binding | no binding | 
